# Data published in patent US20140178935A1 (AVEO PHARMACEUTICALS, published 2014).
# Residue numbers refer to the chain shown, from its start.
# B1: anti-hHGF monoclonal antibody 1D3 (antibody, mouse IgG1, kappa, V domains shown)
# VH: EVQLVESGGGLVQPGGSLKLSCAASGFTFSDYYMSWVRQTPEKRLEWVAYISSGGGSTYYPDSVKGRFTISRDNAKNTLYLQMSSLKSEDTAIYYCVRQGDGYYGDYAMDYWGQGTSVIVSS
# VL: DIQMTQSPASLSVSVGETVTITCRTSENIYSNLAWYQQKQGKSPQLLIYAATNLADGVPSRFSGSGSGTQFSLRINSLQSEDFGRYYCQHFWGTPYTFGGGTKLEIKR
# notes: Murine IgG1 kappa from hybridoma
# B2: anti-hHGF monoclonal antibody 1F3 (antibody, mouse IgG1, kappa, V domains shown)
# VH: B1 VH with P14S, D31N, Y33F, I93M, I119T
# VL: B1 VL with T25A, I48V, A50D, N53H, A55P, R74K, R85S, K103R
# notes: as for B1
# B3: Kappa Hu2B8_Kv1-39.1 / Heavy Hu2B8_Hv5-a.1 (antibody, human IgG1, kappa, V domains shown)
# VH: EVQLVQSGAEVKKPGESLRISCKGSGYSFTTYWMHWVRQMPGKGLEWMGEINPTNGHTNYNPSFQGHVTISADKSISTAYLQWSSLKASDTAMYYCARNYVGSIFDYWGQGTLVTVSS
# VL: DIQMTQSPSSLSASVGDRVTITCKASENVVSYVSWYQQKPGKAPKLLIYGASNRNTGVPSRFSGSGSGTDFTLTISSLQPEDFATYYCGQSYNYPYTFGQGTKLEIKR
# notes: also called Hu2B8 Hv5-a.1 + IgG1 Constant heavy chain with Hu2B8 Kv1-39.1 + Kappa Constant light chain
# B4: Kappa Hu2B8_Kv1-39.1 / Heavy Hu2B8_Hv1-f.1 (antibody, human IgG1, kappa, V domains shown)
# VH: EVQLVQSGAEVKKPGATVKISCKVSGYTFTTYWMHWVQQAPGKGLEWMGEINPTNGHTNYNEKFQGRVTITADTSTDTAYMELSSLRSEDTAVYYCATNYVGSIFDYWGQGTLVTVSS
# VL: B3 VL
# notes: also called Hu2B8 Hv1-f.1 + IgG1 Constant heavy chain with Hu2B8 Kv1-39.1 + Kappa Constant light chain
# B5: Kappa Chimeric 2B8 / Heavy Hu2B8_Hv5-a.1 (antibody, human IgG1, kappa, V domains shown)
# VH: B3 VH
# VL: NIVMTQSPKSMSMSVGERVTLSCKASENVVSYVSWYQQKPAQSPKLLIYGASNRNTGVPDRFTGSGSATDFTLTISSVRAEDLADYHCGQSYNYPYTFGGGTRLEIKR
# notes: also called Hu2B8 Hv5-a.1 + IgG1 Constant heavy chain with Chimeric 2B8 Kappa light chain
# B6: Kappa Hu2B8_Kv1-39.1 / Heavy Chimeric 2B8 (antibody, human IgG1, kappa, V domains shown)
# VH: QVQLQQPGAELVKPGTSVKLSCKASGYTFTTYWMHWVNQRPGQGLEWIGEINPTNGHTNYNEKFKSKATLTVDKSSSTAYMQLSSLTSEDSAVYYCARNYVGSIFDYWGQGTTLTVSS
# VL: B3 VL
# notes: also called Chimeric 2B8 IgG1 heavy chain with Hu2B8 Kv1-39.1 + Kappa Constant light chain
# B7: Kappa Hu2B8_Kv3-15.1 / Heavy Hu2B8_Hv5-a.1 (antibody, human IgG1, kappa, V domains shown)
# VH: B3 VH
# VL: EIVMTQSPATLSVSPGERATLSCKASENVVSYVSWYQQKPGQAPRLLIYGASNRNTGIPARFSGSGSGTEFTLTISSLQSEDFAVYYCGQSYNYPYTFGQGTKLEIKR
# notes: also called Hu2B8 Hv5-a.1 + IgG1 Constant heavy chain with Hu2B8 Kv3-15.1 + Kappa Constant light chain
# B8: Kappa Chimeric 2B8 / Heavy Hu2B8_Hv1-f.1 (antibody, human IgG1, kappa, V domains shown)
# VH: B4 VH
# VL: B5 VL
# notes: also called Hu2B8 Hv1-f.1 + IgG1 Constant heavy chain with Chimeric 2B8 Kappa light chain
# B9: Kappa Hu2B8_Kv3-15.1 / Heavy Hu2B8_Hv1-f.1 (antibody, human IgG1, kappa, V domains shown)
# VH: B4 VH
# VL: B7 VL
# notes: also called Hu2B8 Hv1-f.1 + IgG1 Constant heavy chain with Hu2B8 Kv3-15.1 + Kappa Constant light chain
# B10: Kappa Hu2B8_Kv3-15.1 / Heavy Chimeric 2B8 (antibody, human IgG1, kappa, V domains shown)
# VH: B6 VH
# VL: B7 VL
# notes: also called Chimeric 2B8 IgG1 heavy chain with Hu2B8 Kv3-15.1 + Kappa Constant light chain
# B11: chimeric 2B8 (mouse variable regions with human IgG1 (G1m(17,1)) and Kappa (Km(3)) constant regions) (antibody)
# heavy: not shown
# light: NIVMTQSPKSMSMSVGERVTLSCKASENVVSYVSWYQQKPAQSPKLLIYGASNRNTGVPDRFTGSGSATDFTLTISSVRAEDLADYHCGQSYNYPYTFGGGTRLEIKRTVAAPSVFIFPPSDEQLKSGTASVVCLLNNFYPREAKVQWKVDNALQSGNSQESVTEQDSKDSTYSLSSTLTLSKADYEKHKVYACEVTHQGLSSPVTKSFNRGEC
# notes: also called Chimeric 2B8 IgG1; Chimeric 2B8 Kappa (Km(3))
# Target: T1, recombinant human HGF (R&D Systems, Catalog No. 294-HGN-025) (human, UniProt P14210 32-728)
# T1 construct: Mature HGF is a disulfide-linked heterodimer of alpha and beta chain cut from one precursor; also called rhHGF (R&D Systems); rhHGF
# Test: competition ELISA (DELFIA): antibody inhibits c-Met binding to plate-coated HGF
# Protocol: The plates then were blocked with 200 μL of 5% non-fat dry milk in PBS for 1 hour at room temperature. […] 100 μL of sample per well was transferred to the assay plate and incubated overnight at 4° C.
# The resulting plates then were washed three times with PBS-0.1% Tween 20, and incubated for 1 hour at room temperature with Eu-labeled Streptavidin (Wallac, Catalog No. 1244-360) diluted 1:1000 in DELFIA assay buffer (Wallac, Catalog No. 4002-0010). The resulting plates were washed 3 times with DELFIA wash solution (Wallac, Catalog No. 4010-0010) and incubated with 100 μL/well DELFIA enhancement solution (Wallac #4001-0010) for 15 minutes at room temperature with agitation.
# The plates were read on Victor³V instrument (Perkin Elmer) using the Europium method.
# T1 sequence (P14210 32-728 limits assumed): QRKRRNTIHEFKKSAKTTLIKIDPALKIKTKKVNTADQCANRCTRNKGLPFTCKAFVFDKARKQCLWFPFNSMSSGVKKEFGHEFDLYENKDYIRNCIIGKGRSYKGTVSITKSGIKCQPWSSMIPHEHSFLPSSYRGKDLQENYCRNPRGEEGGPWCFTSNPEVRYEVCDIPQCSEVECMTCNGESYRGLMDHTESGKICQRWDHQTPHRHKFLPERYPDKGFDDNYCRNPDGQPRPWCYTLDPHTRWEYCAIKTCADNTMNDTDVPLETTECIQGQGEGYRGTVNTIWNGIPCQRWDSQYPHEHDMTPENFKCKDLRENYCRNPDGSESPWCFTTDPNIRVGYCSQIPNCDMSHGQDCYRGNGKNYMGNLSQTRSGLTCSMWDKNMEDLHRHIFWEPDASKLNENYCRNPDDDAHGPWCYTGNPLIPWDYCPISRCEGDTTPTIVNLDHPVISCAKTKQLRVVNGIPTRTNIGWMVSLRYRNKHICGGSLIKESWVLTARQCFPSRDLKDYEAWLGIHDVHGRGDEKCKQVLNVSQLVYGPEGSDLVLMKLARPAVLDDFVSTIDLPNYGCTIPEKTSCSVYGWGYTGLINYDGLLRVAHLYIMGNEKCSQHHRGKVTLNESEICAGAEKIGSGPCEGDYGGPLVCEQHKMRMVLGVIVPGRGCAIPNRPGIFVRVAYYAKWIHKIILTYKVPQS
row,IC50 [nM],Binder
1,4.43,B1
2,6.57,B2

# Target: T1, recombinant human HGF (R&D Systems, …)
# Test: SPR (BIAcore T100), antibody captured on mouse anti-human immunoglobulin CM4 chip, HGF 1.88, 3.75 and 7.5 nM injected, 25 C
# Protocol: Antigen-binding affinity and kinetics of interaction were assessed by surface plasmon resonance technology using a BIAcore T100 instrument. Mouse anti-human immunoglobulins (Jackson ImmunoResearch Labs, 209-005-098) were immobilized on carboxymethylated dextran CM4 sensor chips (BIAcore, Catalog No. BR-1005-34) by amine coupling (BIAcore, Catalog No. BR-1000-50) using a standard coupling protocol according to manufacturer's recommendations. The analyses were performed at 25° C. using PBS (GIBCO, Catalog No. 14040-133) containing 0.05% surfactant P20 (BIAcore, Catalog No. BR-1000-54), 2 mg/mL BSA (EMD, Catalog No. 2930) and 10 mg/mL CM-Dextran Sodium salt (Fluka, Catalog No. 86524) as running buffer.
# The antibodies were captured on individual flow cell at a flow rate of 10 μL/min. Injection time was variable for each antibody to yield approximately 20 RU of antibody captured for each cycle. […] The dissociation phase was monitored for 15 or 90 minutes, depending on concentration. The surface then was regenerated with 10 mM Glycine-HCl, pH 2.0 (BIAcore, Catalog No. BR-1003-55) injected for 3 minutes at a flow rate of 60 μL/min before another cycle was initiated. […] Determination of kinetic parameters was achieved using the kinetic function of the BIAevalutation software with reference subtraction.
koff [s⁻¹],kon [M⁻¹ s⁻¹],Binder
3.8e-05,2.6e+06,B3
0.0021,7.1e+06,B4
1.1e-05,2.4e+06,B5
3.9e-05,2.8e+06,B6
5.9e-05,2.2e+06,B7
0.0016,2.4e+06,B8
0.0037,7.8e+06,B9
1.7e-05,3.1e+06,B10
2.7e-05,2.3e+06,B11

# Target: T1, recombinant human HGF (R&D Systems, …)
# Test: SPR, antibody captured by anti-mouse Ig, HGF injected, 25 C
# Protocol: Rabbit anti-mouse immunoglobulins (BIAcore, Catalog No. BR-1005-14) were immobilized on carboxymethylated dextran CM5 sensor chips (BIAcore, Catalog No. BR-1006-68) by amine coupling (BIAcore, Catalog No. BR-1000-50) using a standard coupling protocol according to manufacturer's instructions. The analyses were performed at 25° C. using PBS (GIBCO, Catalog No. 14040-133) containing 0.05% surfactant P20 (BIAcore, Catalog No. BR-1000-54), 2 mg/mL BSA (EMD, Catalog No. 2930), and 10 mg/mL CM-Dextran Sodium salt (Fluka, Catalog No. 86524) as running buffer.
# The antibodies were captured in an individual flow cell at a flow rate of 10 μL/min. Injection time was variable for each antibody to yield approximately 20 RU of antibody captured for each cycle. […] The dissociation phase was monitored for 15 or 90 minutes, depending on concentration. The surface then was regenerated with 10 mM Glycine-HCl, pH 1.7 (BIAcore, Catalog No. BR-1003-54) injected for 3 minutes at a flow rate of 60 μL/min before another cycle was initiated.
# Kinetic parameters were determined using the kinetic function of the BIAevalutation software with reference subtraction.
Kd [nM],koff [s⁻¹],kon [M⁻¹ s⁻¹],Binder
0.0542,8.2e-05,1.7e+06,B1
0.0181,2.6e-05,1.5e+06,B2

# Target: T1, recombinant human HGF (R&D Systems, …)
# Test: cell-based or functional assay
row,"IC50, neutralization of HGF stimulated BrdU incorporation in 4 MBr-5 cells [nM]",Binder
1,4.99,B1
2,1.94,B2

# Target: hHGF-Fc C561R (recombinant hHGF protein containing a cysteine to arginine substitution at position 561) (human)
# Test: SPR, antibody immobilized, HGF protein injected, 25 C
# Protocol: (§1) Each antibody was immobilized on a carboxymethylated dextran CM5 sensor chip (BIAcore, Catalog No. BR-1006-68) by amine coupling (BIAcore, Catalog No. BR-1000-50) using a standard coupling protocol according to manufacturer's instructions.
# (§2) Analyses were performed at 25° C. using PBS (GIBCO, Catalog No. 14040-133) containing 0.05% surfactant P20 (BIAcore, Catalog No. R-1000-54), 2 mg/mL BSA (EMD, Catalog No. 2930) and 10 mg/mL CM-Dextran Sodium salt (Fluka, Catalog No. 86524) as running buffer. […] The resulting binding was determined as resonance units (RU) over baseline 30 seconds after the end of injection. […] Non-specific binding was monitored by comparing binding to a control surface where mouse IgG (Rockland, Catalog No. 010-0102) was immobilized using the same amine coupling procedure.
# Sequence of hHGF-Fc C561R (recombinant hHGF protein containing a cysteine to arginine substitution at position 561) (human) (chain, as listed by the source C561R C561R limits assumed): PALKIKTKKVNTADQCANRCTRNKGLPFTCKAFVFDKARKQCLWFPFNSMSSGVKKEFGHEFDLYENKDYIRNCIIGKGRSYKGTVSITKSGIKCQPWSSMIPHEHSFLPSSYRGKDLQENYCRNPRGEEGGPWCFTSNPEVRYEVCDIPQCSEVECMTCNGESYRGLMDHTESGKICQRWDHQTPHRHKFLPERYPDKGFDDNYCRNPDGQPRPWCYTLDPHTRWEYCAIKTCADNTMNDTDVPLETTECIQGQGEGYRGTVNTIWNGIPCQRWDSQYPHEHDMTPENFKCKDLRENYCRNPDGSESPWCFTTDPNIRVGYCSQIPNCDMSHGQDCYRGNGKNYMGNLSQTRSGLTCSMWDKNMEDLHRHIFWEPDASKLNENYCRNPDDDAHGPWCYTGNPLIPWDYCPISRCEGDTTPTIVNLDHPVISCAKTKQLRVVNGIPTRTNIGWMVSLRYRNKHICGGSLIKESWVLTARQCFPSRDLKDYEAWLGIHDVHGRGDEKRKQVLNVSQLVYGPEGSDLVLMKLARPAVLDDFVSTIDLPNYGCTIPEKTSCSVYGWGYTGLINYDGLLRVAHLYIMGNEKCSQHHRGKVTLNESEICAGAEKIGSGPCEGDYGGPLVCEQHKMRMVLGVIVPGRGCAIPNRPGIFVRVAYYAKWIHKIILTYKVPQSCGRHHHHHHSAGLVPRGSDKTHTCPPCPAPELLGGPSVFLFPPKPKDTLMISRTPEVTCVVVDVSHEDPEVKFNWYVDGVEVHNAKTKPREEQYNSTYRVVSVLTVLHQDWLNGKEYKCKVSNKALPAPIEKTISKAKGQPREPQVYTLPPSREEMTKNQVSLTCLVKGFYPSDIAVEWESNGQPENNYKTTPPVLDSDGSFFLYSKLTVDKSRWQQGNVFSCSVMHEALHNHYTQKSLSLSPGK
row,binding result,Binder
1,binds,B1
2,binds,B2

# Target: hHGF-Fc G555E (recombinant hHGF protein containing a glycine to glutamate substitution at position 555) (human)
# Test: as above
# Protocol: as §1, §2
# Sequence of hHGF-Fc G555E (recombinant hHGF protein containing a glycine to glutamate substitution at position 555) (human) (chain, as listed by the source G555E G555E limits assumed): as the sequence (chain, as listed by the source C561R C561R limits assumed) above, with G501E, R507C counted along it
row,binding result,Binder
1,binds,B1
2,binds,B2

# Target: T2, recombinant mouse HGF (R&D Systems) (mouse, UniProt Q08048 33-728)
# T2 construct: Bought protein, construct not described; also called rmHGF (R&D Systems); murine HGF
# Test: as above
# Protocol: as §1, §2
# T2 sequence (Q08048 33-728 limits assumed): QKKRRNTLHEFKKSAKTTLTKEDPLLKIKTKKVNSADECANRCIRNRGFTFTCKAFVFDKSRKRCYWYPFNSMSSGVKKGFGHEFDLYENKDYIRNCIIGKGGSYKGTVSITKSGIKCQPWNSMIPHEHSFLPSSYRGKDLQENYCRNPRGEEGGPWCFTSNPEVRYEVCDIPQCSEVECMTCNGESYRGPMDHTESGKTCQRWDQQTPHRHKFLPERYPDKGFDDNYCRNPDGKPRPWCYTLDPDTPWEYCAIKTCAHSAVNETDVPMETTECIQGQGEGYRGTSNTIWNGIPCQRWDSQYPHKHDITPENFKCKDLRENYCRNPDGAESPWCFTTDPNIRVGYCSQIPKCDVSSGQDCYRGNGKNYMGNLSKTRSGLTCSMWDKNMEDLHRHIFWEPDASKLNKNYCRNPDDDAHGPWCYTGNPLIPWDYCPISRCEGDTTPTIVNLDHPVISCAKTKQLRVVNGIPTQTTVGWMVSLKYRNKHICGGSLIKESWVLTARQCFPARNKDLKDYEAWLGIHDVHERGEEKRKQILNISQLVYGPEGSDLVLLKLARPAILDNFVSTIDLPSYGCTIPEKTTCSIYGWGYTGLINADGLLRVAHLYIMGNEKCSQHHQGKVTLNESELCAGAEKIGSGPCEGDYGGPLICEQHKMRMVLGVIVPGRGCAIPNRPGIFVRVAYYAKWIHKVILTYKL
row,binding result,Binder
1,no binding,B1
2,binds,B2

# Target: T1, recombinant human HGF (R&D Systems, …)
# Test: cell-based or functional assay
# Remark: another data set of the same source
row,"EC50, inhibition of HGF-stimulated c-Met phosphorylation in PC-3 cells, Average of Two Trials [nM]",Binder
1,0.984,B1
2,1.19,B2
